Data on 6 molecules can be found in patent publication US20180244762A1 (KODIAK SCIENCES, published 2018).

B1: rhVEGFA-165 (ligand, human, UniProt P15692-4 27-191, looked up)
chain: APMAEGGGQNHHEVVKFMDVYQRSYCHPIETLVDIFQEYPDEIEYIFKPSCVPLMRCGGCCNDEGLECVPTEESNITMQIMRIKPHQGQHIGEMSFLQHNKCECRPKKDRARQENPCGPCSERRKHLFVQDPQTCKCSCKNTDSRCKARQLELNERTCRCDKPRR
modifications: biotinylated in Example 34
B6: aflibercept (Fc fusion, UniProt P17948 129-230, looked up, not shown: a dimerising Fc or GST)
chain: SDTGRPFVEMYSEIPEIIHMTEGRELVIPCRVTSPNITVTLKKFPLDTLIPDGKRIIWDSRKGFIISNATYKEIGLLTCEATVNGHLYKTNYLTHRQTNTIIDVVLSPSHGIELSVGEKLVLNCTARTELNVGIDFNWEYPSSKHQHKKLVNRDLKTQSGSEMKKFLSTLTIDGVTRSDQGLYTCAASSGLMTKKNSTFVRVHEK

The experiment “aflibercept” deals with B6. As to the kind of experiment: optical biosensor (Proteon XPR36 / Biacore 2000), binder amine-coupled, rhVEGFA-165 injected, 25 C. The method, then:
(§1) Binding studies were performed at 25° C. and 37° C. using BioRad Proteon XPR36 and Biacore 2000 optical biosensors equipped with GLM (Proteon) and CM4 (Biacore) sensor chips and equilibrated with running buffer (10 m/M HEPES, 150 mM NaCl, 0.005% Teen-20, 0.2 mg/ml BSA).
Binding of the coupled proteins to the ligands was determined by standard methodology.
On the technique in general: Surface plasmon resonance follows binding to a sensor surface in real time, without labels.

For experiment [1], the target named is T1, recombinant human PDGF-BB (human, UniProt P01127 82-190).
T1 construct: also called rhPDGF-BB; rhPDGFBB
Briefly: SPR (Biacore T200, 25 C), binder captured by anti-human IgG, PDGF-BB as analyte, run B. The method, then:
(§2) Each PDGF/VEGF variant was captured to a level of approximately 150 RUs. The running and sample buffer for the PDGF analysis was HBS-EP+300mM NaCl (10 mM 4-(2-hydroxyethyl)-1-piperazineethanesulfonic acid (HEPES) pH 7.4, 300 mM NaCl, 3mM ethylenediaminetetraacetic acid (EDTA), 0.05% (v/v) Tween-20). […] The surface was then regenerated with a 30 second pulse of 3M MgCl₂, a 30 second pulse of an ionic regeneration buffer (0.46M KSCN, 1.83 M MgCl2, 0.92 M urea, and 1.83 M guanidine-HCI pH7.4, Andersson et al., Analytical Chemistry, 1999) and then equilibrated with a 30 second pulse of HBS-EP+ 300 mM NaCl running buffer.
(§3) All SPR assays were performed at 25° C. with a data collection rate of1Hz using a Biacore T200 instrument (GE Healthcare). The resulting PDGP and VEGP sensorgrams were double referenced using both a control surface and buffer injections. The rate constants were determined by fitting the data to a 1:1 Langmuir model with Biacore T200 evaluation software v2.0 and the equation […].

Experiment [2] addresses T1, recombinant human PDGF-BB. Briefly: SPR (Biacore T200, 25 C), binder captured by anti-human IgG, PDGF-BB as analyte, run A. The method, then:
as §2, §3

Experiment [3] addresses T1, recombinant human PDGF-BB. Briefly: competitive ELISA: binder preincubated with 0.2 nM rhPDGF-BB, competitor immobilized PDGFR/Fc.
The target in experiment [4] is T1, recombinant human PDGF-BB. As to the kind of experiment: SPR (Biacore T200, 25 C), binder captured by anti-human IgG, PDGF-BB as analyte, average +/- SD of the runs. The method, then: as §2, §3
Experiment [5] deals with T1, recombinant human PDGF-BB. Briefly: cell-based or functional assay.
In experiment [6] the target is T1, recombinant human PDGF-BB. As to the kind of experiment: optical biosensor (Proteon XPR36 / Biacore 2000), binder amine-coupled, rhPDGF-BB injected, 25 C. The method, then: as §1
Experiment [7] concerns the target T1, recombinant human PDGF-BB. Briefly: SPR (Biacore T200, 25 C), binder captured by anti-human IgG, PDGF-BB as analyte, run C. The method, then:
as §2, §3

For the experiment “rhVEGFA-165”, the target named is B1. As to the kind of experiment: cell-based or functional assay.

T1 sequence (P01127 82-190): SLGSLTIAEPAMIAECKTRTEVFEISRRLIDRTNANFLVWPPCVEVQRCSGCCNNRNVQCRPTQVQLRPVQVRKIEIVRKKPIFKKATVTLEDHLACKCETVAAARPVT

Regarding B1, the Kd (in general, a measure of binding affinity in units of concentration) with aflibercept was determined as 1.56 pM.

B2: TAF443 (PDGFRβ-GS10-anti-VEGF-A heavy chain (L443C)/anti-VEGF-A light chain) (other)
heavy: LVVTPPGPELVLNVSSTFVLTCSGSAPVVWERMSQEPPQEMAKAQDGTFSSVLTLTNLTGLDTGEYFCTHNDSRGLETDERKRLYIFVPDPTVGFLPNDAEELFIFLTEITEITIPCRVTDPQLVVTLHEKKGDVALPVPYDHQRGFSGIFEDRSYICKTTIGDREVDSDAYYVYRLQVSSINVSVNAVQTVVRQGENITLMCIVIGNEVVNFEWTYPRKESGRLVEPVTDFLLDMPYHIRSILHIPSAELEDSGTYTCNVTESVNDHQDEKAINITVVESGGGGGSGGGGSEVQLVESGGGLVQPGGSLRLSCAASGYDFTHYGMNWVRQAPGKGLEWVGWINTYTGEPTYAADFKRRFTFSLDTSKSTAYLQMNSLRAEDTAVYYCAKYPYYYGTSHWYFDVWGQGTLVTVSSASTKGPSVFPLAPSSKSTSGGTAALGCLVKDYFPEPVTVSWNSGALTSGVHTFPAVLQSSGLYSLSSVVTVPSSSLGTQTYICNVNHKPSNTKVDKKVEPKSCDKTHTCPPCPAPEAAGAPSVFLFPPKPKDTLMISRTPEVTCVVVDVSHEDPEVKFNWYVDGVEVHNAKTKPREEQYNSTYRVVSVLTVLHQDWLNGKEYKCKVSNKALPAPIEKTISKAKGQPREPQVYTLPPSREEMTKNQVSLTCLVKGFYPSDIAVEWESNGQPENNYKTTPPVLDSDGSFFLYSKLTVDKSRWQQGNVFSCSVMHEALHNHYTQKSLSCSPGK
light: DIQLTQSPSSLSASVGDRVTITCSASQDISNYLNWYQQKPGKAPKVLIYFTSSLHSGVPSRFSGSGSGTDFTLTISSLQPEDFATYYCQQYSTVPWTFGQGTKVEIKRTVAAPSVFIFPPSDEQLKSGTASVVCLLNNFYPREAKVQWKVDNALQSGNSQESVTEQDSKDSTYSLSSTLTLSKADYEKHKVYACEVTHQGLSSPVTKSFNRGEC
notes: also called OG1321; TAF-443C
Take B2: the Kd was 1.56 pM in experiment [1], 1.54 pM in experiment [2], 1.55 pM in experiment [4] and 14 pM in experiment [6]. Further, the koff (usually the first-order rate constant of dissociation) came to 8.76e-05 s⁻¹ in experiment [1] and 4.96e-05 s⁻¹ in experiment [2]. The kon – broadly, a measure of how fast the partners come together – in [1] was 5.62e+07 M⁻¹ s⁻¹; in experiment [2], 3.22e+07 M⁻¹ s⁻¹. Besides, the values for the t½ in [1] and in experiment [2] were 2.2 h and 3.89 h, respectively. For the same molecule, the IC50 (commonly the concentration that gives 50% inhibition) in [3] worked out at 46 pM. Further, the “Inhibition of PDGF induced proliferation of HPVPs, IC50” value in experiment [5] is 5000 pM.

B3: TAF443-6A250K (other)
heavy: LVVTPPGPELVLNVSSTFVLTCSGSAPVVWERMSQEPPQEMAKAQDGTFSSVLTLTNLTGLDTGEYFCTHNDSRGLETDERKRLYIFVPDPTVGFLPNDAEELFIFLTEITEITIPCRVTDPQLVVTLHEKKGDVALPVPYDHQRGFSGIFEDRSYICKTTIGDREVDSDAYYVYRLQVSSINVSVNAVQTVVRQGENITLMCIVIGNEVVNFEWTYPRKESGRLVEPVTDFLLDMPYHIRSILHIPSAELEDSGTYTCNVTESVNDHQDEKAINITVVESGGGGGSGGGGSEVQLVESGGGLVQPGGSLRLSCAASGYDFTHYGMNWVRQAPGKGLEWVGWINTYTGEPTYAADFKRRFTFSLDTSKSTAYLQMNSLRAEDTAVYYCAKYPYYYGTSHWYFDVWGQGTLVTVSSASTKGPSVFPLAPSSKSTSGGTAALGCLVKDYFPEPVTVSWNSGALTSGVHTFPAVLQSSGLYSLSSVVTVPSSSLGTQTYICNVNHKPSNTKVDKKVEPKSCDKTHTCPPCPAPEAAGAPSVFLFPPKPKDTLMISRTPEVTCVVVDVSHEDPEVKFNWYVDGVEVHNAKTKPREEQYNSTYRVVSVLTVLHQDWLNGKEYKCKVSNKALPAPIEKTISKAKGQPREPQVYTLPPSREEMTKNQVSLTCLVKGFYPSDIAVEWESNGQPENNYKTTPPVLDSDGSFFLYSKLTVDKSRWQQGNVFSCSVMHEALHNHYTQKSLSCSPGK
light: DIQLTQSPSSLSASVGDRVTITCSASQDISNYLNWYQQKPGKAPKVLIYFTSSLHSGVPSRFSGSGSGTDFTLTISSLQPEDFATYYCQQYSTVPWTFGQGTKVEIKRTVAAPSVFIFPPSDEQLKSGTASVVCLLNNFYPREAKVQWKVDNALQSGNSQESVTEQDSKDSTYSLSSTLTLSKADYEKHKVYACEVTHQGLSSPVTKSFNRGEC
modifications: polymer conjugate, label 6A250K; polymer and attachment site not described for this conjugate
notes: also called R3643-6A
Regarding B3, the Kd amounted to 1.47 pM in experiment [7], 1.04 pM in [1], 1.25 pM in [2] and 1.3 pM in experiment [4]. Also, the results for the koff in experiment [7], in [1] and in experiment [2] were 5.13e-05 s⁻¹, 5.85e-05 s⁻¹ and 9.46e-05 s⁻¹, respectively. Moreover, the kon in [7] stood at 3.48e+07 M⁻¹ s⁻¹; in experiment [1], 5.62e+07 M⁻¹ s⁻¹; in experiment [2] it was 7.6e+07 M⁻¹ s⁻¹. Moreover, the t½ (as a rule, how long it takes for the measured level to halve) in experiment [7] stood at 3.76 h; in experiment [1], 3.29 h; in [2], 2.03 h.

B4: TAF (PDGFRβ-GS10-anti-VEGF-A heavy chain/anti-VEGF-A light chain) (other)
heavy: LVVTPPGPELVLNVSSTFVLTCSGSAPVVWERMSQEPPQEMAKAQDGTFSSVLTLTNLTGLDTGEYFCTHNDSRGLETDERKRLYIFVPDPTVGFLPNDAEELFIFLTEITEITIPCRVTDPQLVVTLHEKKGDVALPVPYDHQRGFSGIFEDRSYICKTTIGDREVDSDAYYVYRLQVSSINVSVNAVQTVVRQGENITLMCIVIGNEVVNFEWTYPRKESGRLVEPVTDFLLDMPYHIRSILHIPSAELEDSGTYTCNVTESVNDHQDEKAINITVVESGGGGGSGGGGSEVQLVESGGGLVQPGGSLRLSCAASGYDFTHYGMNWVRQAPGKGLEWVGWINTYTGEPTYAADFKRRFTFSLDTSKSTAYLQMNSLRAEDTAVYYCAKYPYYYGTSHWYFDVWGQGTLVTVSSASTKGPSVFPLAPSSKSTSGGTAALGCLVKDYFPEPVTVSWNSGALTSGVHTFPAVLQSSGLYSLSSVVTVPSSSLGTQTYICNVNHKPSNTKVDKKVEPKSCDKTHTCPPCPAPEAAGAPSVFLFPPKPKDTLMISRTPEVTCVVVDVSHEDPEVKFNWYVDGVEVHNAKTKPREEQYNSTYRVVSVLTVLHQDWLNGKEYKCKVSNKALPAPIEKTISKAKGQPREPQVYTLPPSREEMTKNQVSLTCLVKGFYPSDIAVEWESNGQPENNYKTTPPVLDSDGSFFLYSKLTVDKSRWQQGNVFSCSVMHEALHNHYTQKSLSLSPGK
light: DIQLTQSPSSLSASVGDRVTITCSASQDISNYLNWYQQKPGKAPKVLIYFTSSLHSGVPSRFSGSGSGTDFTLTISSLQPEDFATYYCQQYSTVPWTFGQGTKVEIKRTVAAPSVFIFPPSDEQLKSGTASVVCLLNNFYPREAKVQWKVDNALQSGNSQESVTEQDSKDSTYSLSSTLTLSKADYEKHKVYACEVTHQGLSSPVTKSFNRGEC
modifications: Glycosylated PDGFR segment. The molecule is a dimer of two fusion heavy chains and two light chains.
notes: PDGFR-beta trap fused to the N-terminus of an anti-VEGF-A IgG1 heavy chain; also called TAF-WT; TAFwt
With B4, the Kd in experiment [7] amounted to 1.19 pM; in [1], 1.15 pM; in [2], 1.01 pM; in experiment [4] it was 1.1 pM. For the same molecule, the koff in [7] worked out at 0.000103 s⁻¹; in experiment [1], 9.19e-05 s⁻¹; in experiment [2] it was 8.01e-05 s⁻¹. Besides, the kon in experiment [7] turned out to be 8.65e+07 M⁻¹ s⁻¹; in [1], 8.01e+07 M⁻¹ s⁻¹; in experiment [2] it was 7.97e+07 M⁻¹ s⁻¹. Also, the values for the t½ in [7], in experiment [1] and in [2] were 1.87 h, 2.09 h and 2.4 h, respectively.

B5: TAF347 (PDGFRβ-GS10-anti-VEGF-A heavy chain (Q347C)/anti-VEGF-A light chain) (other)
heavy: LVVTPPGPELVLNVSSTFVLTCSGSAPVVWERMSQEPPQEMAKAQDGTFSSVLTLTNLTGLDTGEYFCTHNDSRGLETDERKRLYIFVPDPTVGFLPNDAEELFIFLTEITEITIPCRVTDPQLVVTLHEKKGDVALPVPYDHQRGFSGIFEDRSYICKTTIGDREVDSDAYYVYRLQVSSINVSVNAVQTVVRQGENITLMCIVIGNEVVNFEWTYPRKESGRLVEPVTDFLLDMPYHIRSILHIPSAELEDSGTYTCNVTESVNDHQDEKAINITVVESGGGGGSGGGGSEVQLVESGGGLVQPGGSLRLSCAASGYDFTHYGMNWVRQAPGKGLEWVGWINTYTGEPTYAADFKRRFTFSLDTSKSTAYLQMNSLRAEDTAVYYCAKYPYYYGTSHWYFDVWGQGTLVTVSSASTKGPSVFPLAPSSKSTSGGTAALGCLVKDYFPEPVTVSWNSGALTSGVHTFPAVLQSSGLYSLSSVVTVPSSSLGTQTYICNVNHKPSNTKVDKKVEPKSCDKTHTCPPCPAPEAAGAPSVFLFPPKPKDTLMISRTPEVTCVVVDVSHEDPEVKFNWYVDGVEVHNAKTKPREEQYNSTYRVVSVLTVLHQDWLNGKEYKCKVSNKALPAPIEKTISKAKGQPREPCVYTLPPSREEMTKNQVSLTCLVKGFYPSDIAVEWESNGQPENNYKTTPPVLDSDGSFFLYSKLTVDKSRWQQGNVFSCSVMHEALHNHYTQKSLSLSPGK
light: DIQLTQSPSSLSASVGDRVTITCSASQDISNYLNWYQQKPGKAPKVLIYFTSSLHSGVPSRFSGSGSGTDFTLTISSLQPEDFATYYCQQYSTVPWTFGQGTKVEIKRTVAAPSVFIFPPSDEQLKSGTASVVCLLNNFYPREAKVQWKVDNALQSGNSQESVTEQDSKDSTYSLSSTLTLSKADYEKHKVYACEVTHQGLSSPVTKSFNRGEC
notes: Same as TAF except for Q347C (EU numbering); also called TAF-347C
Take B5: in [1], the Kd is 1.35 pM, the koff stood at 7.87e-05 s⁻¹, the kon was 5.82e+07 M⁻¹ s⁻¹ and the t½ amounted to 2.45 h. In [2], the Kd is 2.03 pM, the koff is 8.41e-05 s⁻¹, the kon is 4.15e+07 M⁻¹ s⁻¹ and the t½ is 2.29 h. In addition, in experiment [4], the dissociation constant (Kd) was found to be 1.7 pM.
Regarding B6, the “Inhibition of VEGF induced proliferation of HRMVECs, IC50” value with rhVEGFA-165 was determined as 550 pM.
